In patent US20230303698A1 (HARBOUR BIOMED SHANGHAI, published 2023):
One block for each binder: values may come before it.

How the values were obtained:
[1] = target: T1, human OX40 (human, UniProt P43489 29-277); test: flow cytometry, CHO-K1/hu OX40 cells
T1 construct: whole, on cells; Expressed on CHO-K1/hu OX40 cells (GenScript, #M00561); also called CD134; TNFRSF4
T1 sequence (looked up): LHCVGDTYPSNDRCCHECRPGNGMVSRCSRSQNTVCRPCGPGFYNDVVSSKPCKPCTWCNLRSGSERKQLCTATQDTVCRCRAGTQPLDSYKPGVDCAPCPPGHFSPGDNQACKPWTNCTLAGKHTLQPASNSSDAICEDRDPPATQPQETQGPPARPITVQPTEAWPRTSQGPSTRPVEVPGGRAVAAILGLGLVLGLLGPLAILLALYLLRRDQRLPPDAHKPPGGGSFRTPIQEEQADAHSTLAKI
Protocol: The antibody binding assay at the cellular level was performed using a CHO-K1 cell line CHO-K1/hu OX40 (GenScript, #M00561) highly expressing human OX40. Briefly, the CHO-K1/hu OX40 cells were digested and resuspended in an F12K complete medium, and the cell density was adjusted to 1×10⁶ cells/mL. […] The cells were incubated at 4° C. for 1 h away from light. Thereafter, the cells in each well were rinsed twice with 100 μL of pre-cooled PBS, and centrifuged at 500 g at 4° C. for 5 min, and then the supernatant was discarded. […] The plate was incubated away from light at 4° C. for 30 min. The cells in each well were rinsed twice with 100 L of pre-cooled PBS, and centrifuged at 500 g at 4° C. for 5 min, and then the supernatant was discarded. Finally, a pre-cooled PBS was added at 200 μL/well to resuspend the cells. Fluorescence signal values were read using a BD FACS CANTOII flow cytometer or an ACEA NovoCyte flow cytometer, and the data were processed and analyzed using FlowJo v10 (FlowJo, LLC) software.

[2] = target: T2, human PSMA (human, UniProt Q04609 1-750); test: flow cytometry, LNCaP cells highly expressing human PSMA
T2 construct: whole, on cells; On LNCaP cells highly expressing human PSMA (Nanjing Cobioer, CBP60364); also called FOLH1; glutamate carboxypeptidase 2
T2 sequence (Q04609 whole entry): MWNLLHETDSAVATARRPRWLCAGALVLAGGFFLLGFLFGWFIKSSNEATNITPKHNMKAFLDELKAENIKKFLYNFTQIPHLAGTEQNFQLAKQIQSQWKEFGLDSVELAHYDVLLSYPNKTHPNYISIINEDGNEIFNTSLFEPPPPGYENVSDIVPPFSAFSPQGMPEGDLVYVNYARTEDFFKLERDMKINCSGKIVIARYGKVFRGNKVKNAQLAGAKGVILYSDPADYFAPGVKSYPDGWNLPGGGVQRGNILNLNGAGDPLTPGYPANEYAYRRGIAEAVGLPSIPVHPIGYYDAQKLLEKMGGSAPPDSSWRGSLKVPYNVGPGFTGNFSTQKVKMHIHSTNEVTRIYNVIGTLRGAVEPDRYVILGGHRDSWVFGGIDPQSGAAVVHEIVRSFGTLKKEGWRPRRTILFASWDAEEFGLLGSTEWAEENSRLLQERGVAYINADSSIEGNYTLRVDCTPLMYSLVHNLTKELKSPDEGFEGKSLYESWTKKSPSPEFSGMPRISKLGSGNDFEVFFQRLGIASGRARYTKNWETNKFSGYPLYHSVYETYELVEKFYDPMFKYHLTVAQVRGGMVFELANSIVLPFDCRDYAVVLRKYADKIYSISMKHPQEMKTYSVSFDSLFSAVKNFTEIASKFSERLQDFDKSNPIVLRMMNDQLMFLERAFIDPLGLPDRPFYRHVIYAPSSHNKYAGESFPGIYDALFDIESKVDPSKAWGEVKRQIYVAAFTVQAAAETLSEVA

[3] = target: T3, human CLDN18.2 (human); test: flow cytometry, NUGC-4 cells highly expressing human CLDN18.2
T3 construct: On NUGC-4 cells highly expressing human CLDN18.2 (JCRB, JCRB0834); also called Claudin 18.2; NUGC-4 cells
Protocol: In this example, the binding ability of the binding proteins to cells highly expressing specific tumor antigens was determined by flow cytometry FACS. Briefly, a cell suspension was collected, and the cell density was adjusted to 2×10⁶ cells/mL. […] Then, binding proteins diluted in a 3-fold gradient at a total of 8 concentrations that were 2 times the final concentrations were added at 50 μL/well, and the mixture was mixed well. hIgG1 iso (CrownBio, #C0001) was used as an isotype control. The cells were incubated at 4° C. for 2 h away from light. Then, the cells in each well were then rinsed twice with 100 μL of pre-cooled PBS buffer and centrifuged at 500 g at 4° C. for 5 min, and then the supernatant was discarded. […] Then, the cells in each well were then rinsed twice with 100 μL of pre-cooled PBS buffer and centrifuged at 500 g at 4° C. for 5 min, and then the supernatant was discarded. Finally, a pre-cooled FACS buffer (PBS buffer containing 0.5% BSA) was added at 200 μL/well to resuspend the cells. Fluorescence signal values were read using an ACEA NovoCyte flow cytometer or a BD FACS CANTOII flow cytometer, and the data were processed and analyzed using FlowJo v10 (FlowJo, LLC) software.
In this example, the binding ability of the antibodies targeting CLDN18.2 to NUGC-4 cells highly expressing human CLDN18.2 (JCRB, JCRB0834) was determined.

[4] = target: T4, human PD-L1 (human, UniProt Q9NZQ7 19-290); test: flow cytometry, CHO-K1/hPD-L1 cells
T4 construct: whole, on cells; Expressed on CHO-K1/hPD-L1 cells (GenScript, M00543); also called CD274; B7-H1
T4 sequence (Q9NZQ7 19-290): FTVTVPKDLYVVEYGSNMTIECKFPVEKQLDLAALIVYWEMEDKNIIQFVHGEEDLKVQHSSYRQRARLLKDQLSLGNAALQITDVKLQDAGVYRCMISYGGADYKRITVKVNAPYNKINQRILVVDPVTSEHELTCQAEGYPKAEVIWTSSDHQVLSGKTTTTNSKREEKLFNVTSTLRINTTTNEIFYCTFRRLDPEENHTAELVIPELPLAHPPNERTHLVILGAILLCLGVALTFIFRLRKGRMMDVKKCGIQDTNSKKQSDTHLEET

binding result [4]: binds
binding result [1]: binds
B3: PR003789 (bispecific antibody, human IgG1, kappa, L234A L235A)
light: DIQMTQSPSTLSASVGDRVTVTCRASQSIYIWLAWYQQKPGKAPNLLIYKASSLETGVPSRFSGSGSGTEFTLTISSLQPDDFATYYCQQYYGSSRTFGQGTKVEIKRTVAAPSVFIFPPSDEQLKSGTASVVCLLNNFYPREAKVQWKVDNALQSGNSQESVTEQDSKDSTYSLSSTLTLSKADYEKHKVYACEVTHQGLSSPVTKSFNRGEC
heavy: EVQLVESGGGLVQPGGSLRLSCAASGFTFSSYWMSWVRQAPGKGLEWVANIKQEGSEKYYVDSVKGRFTISRDNAKNSLYLQMNSLRAEDTAVYYCARDRAVAGAFDIWGQGTMVTVSSASTKGPSVFPLAPSSKSTSGGTAALGCLVKDYFPEPVTVSWNSGALTSGVHTFPAVLQSSGLYSLSSVVTVPSSSLGTQTYICNVNHKPSNTKVDKKVEPKSCDKTHTCPPCPAPEAAGGPSVFLFPPKPKDTLMISRTPEVTCVVVDVSHEDPEVKFNWYVDGVEVHNAKTKPREEQYNSTYRVVSVLTVLHQDWLNGKEYKCKVSNKALGAPIEKTISKAKGQPREPQVYTLPPSREEMTKNQVSLTCLVKGFYPSDIAVEWESNGQPENNYKTTPPVLDSDGSFFLYSKLTVDKSRWQQGNVFSCSVMHEALHNHYTQKSLSLSPGAEPKSSDKTHTPPPPPEVQLLESGGGLVQPGGSLRLSCAASGFTFSSYAMSWVRQAPGKGLEWVSAISGRGGSTFYADSVRGRFTISRDNSKNTLYLQMNSLRAEDTAMYYCVDGTTGTTDVDYWGQGTLVTVSS
notes: Structure 1, IgG-VH; PD-L1 Fab from PR000265, OX40 VH from PR002067; linker H1_15; human IgG1 (AAG); also called PD-L1×OX40 bispecific antibody molecule

binding result [1]: binds
B4: PR002067, anti-OX40 heavy-chain antibody R1026P079E12 (antibody, human IgG1, V domains shown)
VH: EVQLLESGGGLVQPGGSLRLSCAASGFTFSSYAMSWVRQAPGKGLEWVSAISGRGGSTFYADSVRGRFTISRDNSKNTLYLQMNSLRAEDTAMYYCVDGTTGTTDVDYWGQGTLVTVSS
notes: Fully human heavy-chain antibody (HCAb), heavy chain dimer without light chains; also called anti-OX40 HCAb antibody

Second part, the binder before the results:

B1: PR004284 (bispecific antibody, human IgG1, kappa, L234A L235A)
light: DIQMTQSPSSLSASIGDRVTITCRASQSINSYLNWYQQKPGKAPKLLIYTASSLLSGVPSRFSASGSWTDFSLTISSLQPEDFATYYCQQSFSTPYTFGQGTNLEIKRTVAAPSVFIFPPSDEQLKSGTASVVCLLNNFYPREAKVQWKVDNALQSGNSQESVTEQDSKDSTYSLSSTLTLSKADYEKHKVYACEVTHQGLSSPVTKSFNRGEC
heavy: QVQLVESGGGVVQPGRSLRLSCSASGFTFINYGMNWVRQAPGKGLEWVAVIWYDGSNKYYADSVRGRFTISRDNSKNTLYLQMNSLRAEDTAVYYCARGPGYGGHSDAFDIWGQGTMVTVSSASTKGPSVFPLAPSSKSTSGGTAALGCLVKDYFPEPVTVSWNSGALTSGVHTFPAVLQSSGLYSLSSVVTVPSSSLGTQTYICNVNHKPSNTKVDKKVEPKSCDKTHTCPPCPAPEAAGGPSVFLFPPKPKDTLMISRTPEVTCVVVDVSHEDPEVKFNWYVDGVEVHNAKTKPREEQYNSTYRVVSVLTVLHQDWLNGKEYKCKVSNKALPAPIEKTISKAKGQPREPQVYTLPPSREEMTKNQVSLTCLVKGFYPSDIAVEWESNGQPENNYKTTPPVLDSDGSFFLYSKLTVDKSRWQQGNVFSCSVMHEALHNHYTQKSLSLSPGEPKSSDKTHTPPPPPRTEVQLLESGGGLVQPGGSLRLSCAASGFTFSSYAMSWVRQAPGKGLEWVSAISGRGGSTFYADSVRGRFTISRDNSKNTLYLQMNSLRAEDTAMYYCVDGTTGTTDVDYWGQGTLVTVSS
notes: Structure 1, IgG-VH; PSMA Fab from PR001331, OX40 VH from PR002067; linker H1_15-RT; human IgG1 (LALA); also called PSMA×OX40 bispecific antibody molecule
binding result [1]: binds
binding result [2]: binds

B2: PR002726, anti-CLDN18.2 monoclonal antibody 13E6F4 hIgG1 (antibody, V domains shown)
VH: EVQLLESGGGLVQPGGSLRLSCAASGFTFSSFVMSWVRQAPGKGLEWVSTISGSGRSTYYADSVKGRFTISRDNSKNTLHLQMNSLRAEDTAVYYCAKDAAAAGTKFDYWGQGTLVTVSS
VL: EIVLTQSPATLSLSPGERATLSCRASQSVSSYLAWYQQKPGQAPRLLIYDASNRATGIPARFSGSGSGTDFTLTISSLEPEDFAVYYCQQRSNWPLTFGGGTKVEIKR
notes: Parent monoclonal antibody of the CLDN18.2 end; hIgG1
binding result [3]: binds
